{
  "source": "patent US10450368",
  "about": "(DUKE UNIVERSITY, dated 2019)",
  "key": {"[1]": {"target": "CH505 TF loop D mutant M8 Env (pseudovirus) (HIV-1)", "assay": "cell-based or functional assay"}, "Scl-70": {"target": "T1, Scl-70 (UniProt P11387 1-765)", "T1 sequence": "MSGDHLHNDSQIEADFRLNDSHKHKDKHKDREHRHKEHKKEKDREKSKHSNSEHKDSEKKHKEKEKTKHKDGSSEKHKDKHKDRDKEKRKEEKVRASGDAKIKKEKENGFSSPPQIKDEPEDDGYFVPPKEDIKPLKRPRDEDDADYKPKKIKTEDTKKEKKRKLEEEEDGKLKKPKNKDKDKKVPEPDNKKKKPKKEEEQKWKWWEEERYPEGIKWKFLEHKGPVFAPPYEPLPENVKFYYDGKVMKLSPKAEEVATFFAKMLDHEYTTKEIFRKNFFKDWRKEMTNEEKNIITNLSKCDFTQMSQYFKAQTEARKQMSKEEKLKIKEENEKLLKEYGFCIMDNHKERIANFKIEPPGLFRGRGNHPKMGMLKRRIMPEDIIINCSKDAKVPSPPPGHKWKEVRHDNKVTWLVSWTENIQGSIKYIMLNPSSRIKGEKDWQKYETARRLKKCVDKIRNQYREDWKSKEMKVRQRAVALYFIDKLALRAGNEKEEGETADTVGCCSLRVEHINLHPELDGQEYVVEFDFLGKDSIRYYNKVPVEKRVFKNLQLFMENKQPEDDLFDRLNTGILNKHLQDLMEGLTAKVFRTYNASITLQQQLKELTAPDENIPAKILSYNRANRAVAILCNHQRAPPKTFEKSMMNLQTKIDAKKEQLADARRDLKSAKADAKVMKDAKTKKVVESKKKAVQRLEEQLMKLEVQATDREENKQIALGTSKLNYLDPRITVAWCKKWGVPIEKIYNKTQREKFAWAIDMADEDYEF", "assay": "AtheNA, Ab 12.5 ug/ml", "description": "AtheNA Multi-Lyte ANA Plus Test System is one such assay. This is luminex-based assay, which is also used to screen patient sera."}},
  "data": [
    {"binder": "CH493 (antibody, V domains shown, also called CH235.9; DH493) VH: QVRLLQYGGGVKRPGASMTISCVASGYNFNDYYIHWVRQAPGQGLELMGWIDPSGGRTDYAGAFGDRVSMYRDKSMNTLYMDLRSLRSGDTAMYYCVRNVGTAGSLLHYDHWGLGVMVTVSS VL: EIVLTQSPATLSVSPGERVTLSCRASQSVRNNLAWYRQKRGQAPRLLIYGASTRATGIPARFSGSGSGTEFTLTISSMQSEDFAVYYCQQYNNWWTFGQGTKVEIK", "values": [
      {"measurement": "neutralization IC50, TZM-bl pseudovirus assay", "setting": "[1]", "result": 0.66, "unit": "µg/mL"},
      {"measurement": "AtheNA signal", "setting": "Scl-70", "result": 26}
    ]}
  ]
}
